Consider 5 molecules from patent US20260151499A1, “ANTIBODY DERIVATIVE AND USE THEREOF” (TSINGHUA UNIVERSITY, priority 2023, published 2026).

Experiment [1] addresses T1, CD73 (Homo sapiens, UniProt P21589).
T1 construct: His (Chis) (C); made in house; host or cells: 293 cells
T1 sequence (P21589 27-549 limits assumed): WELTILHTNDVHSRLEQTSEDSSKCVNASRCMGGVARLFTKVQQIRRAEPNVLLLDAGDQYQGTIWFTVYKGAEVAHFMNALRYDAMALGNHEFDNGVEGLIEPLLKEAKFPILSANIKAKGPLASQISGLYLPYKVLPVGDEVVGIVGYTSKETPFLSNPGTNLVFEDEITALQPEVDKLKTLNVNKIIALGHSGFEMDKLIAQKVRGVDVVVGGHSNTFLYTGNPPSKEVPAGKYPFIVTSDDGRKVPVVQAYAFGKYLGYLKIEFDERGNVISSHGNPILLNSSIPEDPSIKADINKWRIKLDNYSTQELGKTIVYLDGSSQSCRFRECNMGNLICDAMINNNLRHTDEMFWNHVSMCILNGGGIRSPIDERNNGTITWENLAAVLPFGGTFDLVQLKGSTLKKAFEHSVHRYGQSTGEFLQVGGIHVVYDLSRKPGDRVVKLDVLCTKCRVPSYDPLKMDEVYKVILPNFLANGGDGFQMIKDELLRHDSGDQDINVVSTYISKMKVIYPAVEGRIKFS
Kind of experiment: Octet BLI affinity for CD73, Ab-BN3 on protein A sensors. It is filed as binding. A general note: In BLI a coated tip is dipped into the sample, and binding shifts an interference pattern.

Experiment [2] has as its target T1, CD73. The experiment is described as follows: CD73 inhibition, AMP hydrolysis, malachite green phosphate assay. It is filed as biochemical. The conditions noted are these: calculated from the inhibition curves.
The next experiment addresses T2, NaV1.7 (Homo sapiens, UniProt Q15858).
T2 construct: expressed in transfected cells; host or cells: HEK293
Kind of experiment: Whole-cell patch clamp, HEK293-NaV1.7 cells. The experiment is classed as cell-based. Conditions: tested up to 500 nM where selectivity. (Patch clamp records ionic current or voltage across a cell membrane.)

Another experiment addresses T3, NaV1.6 (Homo sapiens, UniProt Q9UQD0).
T3 construct: expressed in transfected cells; host or cells: HEK293
Kind of experiment: Whole-cell patch clamp, HEK293-NaV1.6 cells. The experiment is classed as cell-based.

The next experiment addresses T4, NaV1.2 (Homo sapiens, UniProt Q99250).
T4 construct: expressed in transfected cells; host or cells: HEK293
The experiment is described as follows: Whole-cell patch clamp, HEK293-NaV1.2 cells. The experiment is classed as cell-based.

T2 sequence (Q15858 whole entry): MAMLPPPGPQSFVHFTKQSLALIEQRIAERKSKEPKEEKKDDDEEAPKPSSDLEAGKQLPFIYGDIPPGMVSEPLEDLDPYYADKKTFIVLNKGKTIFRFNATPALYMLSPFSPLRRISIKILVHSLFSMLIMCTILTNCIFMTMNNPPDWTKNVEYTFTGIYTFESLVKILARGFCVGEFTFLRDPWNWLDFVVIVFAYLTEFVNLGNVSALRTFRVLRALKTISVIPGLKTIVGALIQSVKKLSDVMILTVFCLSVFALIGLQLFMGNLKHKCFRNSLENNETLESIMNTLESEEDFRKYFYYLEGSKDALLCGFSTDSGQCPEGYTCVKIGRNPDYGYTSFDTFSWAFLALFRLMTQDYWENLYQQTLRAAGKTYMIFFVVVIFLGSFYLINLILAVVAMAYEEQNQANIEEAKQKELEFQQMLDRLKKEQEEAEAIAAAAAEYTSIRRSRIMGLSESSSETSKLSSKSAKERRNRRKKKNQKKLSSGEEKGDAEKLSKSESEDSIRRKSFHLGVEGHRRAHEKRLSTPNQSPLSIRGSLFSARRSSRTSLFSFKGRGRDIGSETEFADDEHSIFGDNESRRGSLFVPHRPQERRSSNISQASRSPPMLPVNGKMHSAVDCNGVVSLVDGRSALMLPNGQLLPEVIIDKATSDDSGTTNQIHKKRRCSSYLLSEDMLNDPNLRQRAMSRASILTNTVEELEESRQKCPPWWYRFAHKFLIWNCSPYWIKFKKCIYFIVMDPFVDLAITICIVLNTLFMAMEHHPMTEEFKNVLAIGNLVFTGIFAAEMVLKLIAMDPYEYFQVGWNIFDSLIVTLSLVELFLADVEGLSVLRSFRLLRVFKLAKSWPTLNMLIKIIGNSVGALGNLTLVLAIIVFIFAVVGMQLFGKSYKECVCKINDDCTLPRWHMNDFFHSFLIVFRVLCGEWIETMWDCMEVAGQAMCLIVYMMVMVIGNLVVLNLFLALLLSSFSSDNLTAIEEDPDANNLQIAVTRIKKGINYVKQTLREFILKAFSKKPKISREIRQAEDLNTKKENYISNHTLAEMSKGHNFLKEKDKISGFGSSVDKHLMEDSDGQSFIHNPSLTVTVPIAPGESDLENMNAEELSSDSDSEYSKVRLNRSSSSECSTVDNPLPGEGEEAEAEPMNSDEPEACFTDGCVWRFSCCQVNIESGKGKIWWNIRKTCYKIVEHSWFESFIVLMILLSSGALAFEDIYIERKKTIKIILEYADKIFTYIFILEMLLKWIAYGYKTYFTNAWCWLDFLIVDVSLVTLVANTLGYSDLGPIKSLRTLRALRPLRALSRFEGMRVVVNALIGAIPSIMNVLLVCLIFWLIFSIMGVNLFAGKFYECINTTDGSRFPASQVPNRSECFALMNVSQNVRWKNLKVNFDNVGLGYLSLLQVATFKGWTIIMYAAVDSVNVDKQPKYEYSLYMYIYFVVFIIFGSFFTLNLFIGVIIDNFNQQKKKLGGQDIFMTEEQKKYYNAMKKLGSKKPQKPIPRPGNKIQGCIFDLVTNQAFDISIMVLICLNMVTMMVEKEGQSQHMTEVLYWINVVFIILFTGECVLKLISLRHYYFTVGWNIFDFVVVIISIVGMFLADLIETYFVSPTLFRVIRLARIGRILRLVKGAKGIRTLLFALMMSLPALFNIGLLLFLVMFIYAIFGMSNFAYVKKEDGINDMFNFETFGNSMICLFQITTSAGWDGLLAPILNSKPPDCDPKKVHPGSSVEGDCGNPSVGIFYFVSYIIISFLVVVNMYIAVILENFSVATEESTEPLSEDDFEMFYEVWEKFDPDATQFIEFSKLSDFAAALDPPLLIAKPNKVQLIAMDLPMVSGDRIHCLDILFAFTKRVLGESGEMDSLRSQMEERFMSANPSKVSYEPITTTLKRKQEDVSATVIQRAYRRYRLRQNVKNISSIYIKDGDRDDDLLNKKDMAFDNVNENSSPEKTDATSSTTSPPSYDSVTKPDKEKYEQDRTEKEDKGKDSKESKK
T4 sequence (Q99250 whole entry): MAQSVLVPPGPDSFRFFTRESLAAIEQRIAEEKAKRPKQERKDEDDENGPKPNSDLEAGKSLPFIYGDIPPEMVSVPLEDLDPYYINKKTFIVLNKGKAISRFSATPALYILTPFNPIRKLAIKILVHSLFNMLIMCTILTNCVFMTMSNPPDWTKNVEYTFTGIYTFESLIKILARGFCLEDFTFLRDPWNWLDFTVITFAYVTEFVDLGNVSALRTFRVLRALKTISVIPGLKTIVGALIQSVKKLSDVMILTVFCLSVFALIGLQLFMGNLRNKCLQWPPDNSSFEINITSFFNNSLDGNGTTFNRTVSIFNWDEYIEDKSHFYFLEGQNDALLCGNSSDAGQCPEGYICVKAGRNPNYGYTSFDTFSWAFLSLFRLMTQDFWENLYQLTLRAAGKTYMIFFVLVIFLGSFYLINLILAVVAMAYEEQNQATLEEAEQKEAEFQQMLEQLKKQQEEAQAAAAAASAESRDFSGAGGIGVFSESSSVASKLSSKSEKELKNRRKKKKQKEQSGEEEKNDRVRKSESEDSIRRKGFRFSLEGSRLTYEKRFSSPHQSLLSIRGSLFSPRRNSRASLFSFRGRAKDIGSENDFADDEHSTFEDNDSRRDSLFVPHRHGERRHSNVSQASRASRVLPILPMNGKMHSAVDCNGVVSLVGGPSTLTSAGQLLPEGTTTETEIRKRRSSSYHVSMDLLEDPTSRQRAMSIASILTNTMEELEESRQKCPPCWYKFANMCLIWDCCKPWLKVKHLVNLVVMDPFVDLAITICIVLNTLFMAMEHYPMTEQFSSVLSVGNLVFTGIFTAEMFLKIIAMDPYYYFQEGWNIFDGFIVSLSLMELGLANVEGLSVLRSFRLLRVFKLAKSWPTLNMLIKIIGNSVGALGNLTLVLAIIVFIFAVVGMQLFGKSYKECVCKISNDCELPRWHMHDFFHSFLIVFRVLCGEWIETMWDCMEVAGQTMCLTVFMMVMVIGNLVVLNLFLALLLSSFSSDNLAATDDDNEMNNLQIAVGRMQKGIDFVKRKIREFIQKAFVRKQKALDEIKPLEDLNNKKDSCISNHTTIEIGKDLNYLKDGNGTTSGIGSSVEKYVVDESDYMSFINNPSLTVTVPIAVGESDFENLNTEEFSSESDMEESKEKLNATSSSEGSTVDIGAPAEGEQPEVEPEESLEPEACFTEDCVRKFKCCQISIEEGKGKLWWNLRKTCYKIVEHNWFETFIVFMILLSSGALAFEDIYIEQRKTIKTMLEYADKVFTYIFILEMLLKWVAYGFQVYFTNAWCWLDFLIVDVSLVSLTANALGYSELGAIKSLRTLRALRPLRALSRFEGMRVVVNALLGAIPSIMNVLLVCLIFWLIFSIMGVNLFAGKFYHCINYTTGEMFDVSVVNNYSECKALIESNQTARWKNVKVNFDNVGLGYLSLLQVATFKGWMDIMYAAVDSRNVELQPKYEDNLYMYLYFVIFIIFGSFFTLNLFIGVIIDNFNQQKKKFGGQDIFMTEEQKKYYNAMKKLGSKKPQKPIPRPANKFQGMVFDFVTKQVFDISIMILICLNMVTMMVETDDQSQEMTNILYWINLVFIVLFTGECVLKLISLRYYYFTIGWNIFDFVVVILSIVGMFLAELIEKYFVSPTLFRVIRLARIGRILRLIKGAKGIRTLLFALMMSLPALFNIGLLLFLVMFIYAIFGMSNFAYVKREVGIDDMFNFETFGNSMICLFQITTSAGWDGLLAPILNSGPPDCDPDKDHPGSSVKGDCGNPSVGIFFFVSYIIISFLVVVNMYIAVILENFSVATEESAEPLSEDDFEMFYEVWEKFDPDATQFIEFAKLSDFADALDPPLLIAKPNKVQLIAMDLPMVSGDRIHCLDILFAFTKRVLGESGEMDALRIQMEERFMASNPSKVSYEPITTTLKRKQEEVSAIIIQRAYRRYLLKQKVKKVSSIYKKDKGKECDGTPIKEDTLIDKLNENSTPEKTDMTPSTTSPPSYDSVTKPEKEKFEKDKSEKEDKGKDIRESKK

B1: 10A7-BN3: IgG1 antibody 10A7 conjugated to BN3 (conjugate)
VH: EVQLVESGGGLVQPGGSLRLSCAASGFAFSSYSMSWVRQAPGKGLEWIGSIYYSGSTYYNPSLKSRVTISADTSKNTAYLQMNSLRAEDTAVYYCARNSGFETLDYWGQGTLVTVSS
VL: DIQMTQSPSSLSASVGDRVTITCRASQGISRWLAWYQQKPGKAPNLLIYGASTLQSGVPPRFSGSRSGTDFTLTISSLQPEDFATYYCQQXYTTPPTFGQGTKLEI
modifications: non-natural residues
For B1, in the experiment with CD73 [1], the “Kdis” value was 0.000191 s⁻¹ and the “Kon” value is recorded as 2.15 × 10^5 1/ms. For the same molecule, the IC90 with CD73 [2] is 2.9 nM.

B2: 5A5-PEG3-ASF: antibody 5A5 conjugated with ASF-PEG3-DBCO (conjugate)
VH: EVQLVESGGGLVQPGGSLRLSCAASGFPFSGHWMHWVRQAPGKGLEWVSGISWNGGTTGYADSVKGRFTISRDNAKNSVYLQMNSLRAEDTAVYYCARDDYGGDSFDSWGQGTLVTVSS
VL: DIQMTQSPSSLSASVGDRVTITCRASQSISDWLAWYQQKPGKAPKLLIYAASSLQSGVPSRFSGSRSGTDFTLTISSLQPEDFATYYCQQXYTTPPTFGQGTKLEI
modifications: non-natural residues
notes: antibody 5A5 conjugated with ASF-PEG3-DBCO
For the molecule B2, in the experiment with NaV1.7, the “inhibitory activity against NaV1.7 (in words)” value was “no inhibitory activity”. In addition, the “improvement of NaV1.6 inhibitory activity over ASF-PEG3-DBCO” value with NaV1.6 is “more than 20 fold”. For the same molecule, in the experiment with NaV1.2 (tested up to 500 nM), the “inhibitory activity against NaV1.2 (in words)” value was “no inhibitory activity”.

B3: ABN3-2B-BN3: IgG1 antibody ABN3-2B conjugated to BN3 (conjugate)
VH: EVQLVESGGGLVQPGGSLRLSCAASGFTFSSYWMHWVRQAPGKGLEWVSAVSGSGDSTYYADSVKGRFTISADTSKNTAYLQMNSLRAEDTAVYYCAREGDWGLDYWGQGTLVTVSS
VL: DIQMTQSPSSLSASVGDRVTITCRASQGINNYLAWYQQKPGKAPKLLIYDASNLETGVPSRFSGSRSGTDFTLTISSLQPEDFATYYCQQXYTTPPTFGQGTKLEI
modifications: not fully specified; non-natural residues
As for B3, in the experiment with CD73 [1], the “Kdis” value was 0.000582 s⁻¹ and the “Kon” value is listed as 1.85 × 10^5 1/ms.

B4: 14E6-PEG3-ASF: antibody 14E6 conjugated with ASF-PEG3-DBCO (conjugate)
VH: EVQLVESGGGLVQPGGSLRLSCAASGFTFSNFAMHWVRQAPGKGLEYVSAISGGNGGGTYYADSAKGRFTISADTSKNTAYLQMNSLRAEDTAVYYCAREGNYCLDYWGQGTLVTVSS
VL: DIQMTQSPSSLSASVGDRVTITCRASQPISDWLAWYQQKPGKAPKSLIYDAYNLQSGVPPRFSGSRSGTDFTLTISSLQPEDFATYYCQQXYTTPPTFGQGTKLEI
modifications: not fully specified; non-natural residues
notes: antibody 14E6 conjugated with ASF-PEG3-DBCO
Consider B4, for which the “inhibitory activity against NaV1.7 (in words)” value with NaV1.7 is on record as “no inhibitory activity”. The “inhibitory activity against NaV1.2 at 100 nM (in words)” value with NaV1.2 (100 nM Ab-ASF) is reported as “near-complete inhibition”.

B5: ABN3-2G-BN3: IgG1 antibody ABN3-2G conjugated to BN3 (conjugate)
VH: EVQLVESGGGLVQPGGSLRLSCAASGITFGSYTMSWVRQAPGKGLEWIGTVHYTGKTFYSPSLKSRVTISADTSKNTAYLQMNSLRAEDTAVYYCARGRDFGEPPYVRAFDIWGQGTLVTVSS
VL: DIQMTQSPSSLSASVGDRVTITCQASHDISKYLNWYQQKPGKAPKLLIYDASNLETGVPSRFSGSRSGTDFTLTISSLQPEDFATYYCQQXYTTPPTFGQGTKLEI
modifications: not fully specified; non-natural residues
Take B5: in the experiment with CD73 [1], the “Kdis” value was 0.000271 s⁻¹ and the “Kon” value was 3.05 × 10^5 1/ms.

For orientation: IC90 means the concentration at which the effect reaches the 90% level.
